# Results: US6949577B2, “Pharmaceuticals” (Pfizer, Inc., priority 2000, dated 2005)
# B1: tPA: recombinant tissue plasminogen activator (tPA), a profibrinolytic antithrombotic (protein, UniProt P00750 36-562, looked up)
# Tissue-type plasminogen …: SYQVICRDEKTQMIYQQHQSWLRPVLRSNRVEYCWCNSGRAQCHSVPVKSCSEPRCFNGGTCQQALYFSDFVCQCPEGFAGKCCEIDTRATCYEDQGISYRGTWSTAESGAECTNWNSSALAQKPYSGRRPDAIRLGLGNHNYCRNPDRDSKPWCYVFKAGKYSSEFCSTPACSEGNSDCYFGNGSAYRGTHSLTESGASCLPWNSMILIGKVYTAQNPSAQALGLGKHNYCRNPDGDAKPWCHVLKNRRLTWEYCDVPSCSTCGLRQYSQPQFRIKGGLFADIASHPWQAAIFAKHRRSPGERFLCGGILISSCWILSAAHCFQERFPPHHLTVILGRTYRVVPGEEEQKFEVEKYIVHKEFDDDTYDNDIALLQLKSDSSRCAQESSVVRTVCLPPADLQLPDWTECELSGYGKHEALSPFYSERLKEAHVRLYPSSRCTSQHLLNRTVTDNMLCAGDTRSGGPQANLHDACQGDSGGPLVCLNDGRMTLVGIISWGLGCGQKDVPGVYTKVTNYLDWIRDNMRP
# Tested on: thrombi in the left circumflex (LCX) coronary artery
# Assay: Lysis of coronary artery thrombi by TAFIa inhibitor in conjunction with t-PA
# Format: in vivo, dogs
# Excerpt: The study was designed with 4 groups (8 dogs/group): • (i) aspirin pre-treatment/vehicle infusion; • (ii) no pre-treatment/vehicle infusion; • (iii) no pre-treatment/TAFIa inhibitor; and • (iv) aspirin pre-treatment/TAFIa inhibitor.
# Thirty minutes after initiating vehicle or compound infusion a continuous electrical current was delivered to the lumen of the left circumflex (LCX) coronary artery to cause endothelial damage and stimulate the production of a thrombus. Thrombi were allowed to mature for 1 hour prior to attempting to lyse the thrombus and cause vessel reperfusion with t-PA. A total of 4 bolus injections of t-PA (each 0.45 mg/kg i.v.) were given sequentially at 15 minute intervals. Blood flow through the coronary artery was then monitored for a further 2 hours so as to assess vessel patency. Time to vessel occlusion, and reperfusion were measured and the quantity and quality of blood flow analysed post-vessel re-perfusion. In addition, the effect of treatment on surgical bleeding, activated clotting time, cutaneous bleeding and platelet aggregation was also assessed.
molecule,measurement,setting,value
B1,injured vessels patent at the end of the experiment,"8 dogs/group, all groups received t-PA",2/8
same,blood flow post-reperfusion (FIG. 1),"dogs, t-PA 4 x 0.45 mg/kg i.v. boluses, comparison of treatment groups",superior to the combination of tPA and aspirin
